Here are results for two proteins from US20060024287A1 (published 2006).

In data set [1] the target is T1, recombinant human full-length TrpRS (SY variant) with C-terminal His6-tag.
T1 chain: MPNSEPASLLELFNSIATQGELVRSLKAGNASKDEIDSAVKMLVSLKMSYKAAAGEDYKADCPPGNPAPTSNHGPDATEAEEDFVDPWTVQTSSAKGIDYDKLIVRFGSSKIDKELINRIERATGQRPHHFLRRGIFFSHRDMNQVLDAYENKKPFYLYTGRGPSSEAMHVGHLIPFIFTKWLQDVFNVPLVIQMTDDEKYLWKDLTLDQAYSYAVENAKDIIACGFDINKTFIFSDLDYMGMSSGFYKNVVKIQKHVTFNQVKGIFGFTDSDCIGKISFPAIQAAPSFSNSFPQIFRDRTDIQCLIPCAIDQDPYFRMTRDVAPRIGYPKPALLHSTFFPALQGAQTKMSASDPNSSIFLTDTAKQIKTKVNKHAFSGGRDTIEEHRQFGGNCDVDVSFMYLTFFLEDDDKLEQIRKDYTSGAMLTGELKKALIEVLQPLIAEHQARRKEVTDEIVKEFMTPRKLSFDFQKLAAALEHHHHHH

Data set [2] deals with the molecule itself. Nature of the data set: SDS-PAGE, unheated against heated samples; band at roughly 86 kDa disappears on heating, band at roughly 43 kD remains.

B1: PMN elastase (protein)
chain: IVGGRRARPHAWPFMVSLQLRGGHFCGATLIAPNFVMSAAHCVANVNVRAVRVVLGAHNLSRREPTRQVFAVQRIFENGYDPVNLLNDIVILQLNGSATINANVQVAQLPAQGRRLGNGVQCLAMGWGLLGRNRGIASVLQELNVTVVTSLCRRSNVCTLVRGRQAGVCFGDSGSPLVCNGLIHGIASFVRGGCASGLYPDAFAPVAQFVNWIDSIIQ
Consider B1, for which the “cleavage seen on 12.5% SDS-polyacrylamide gels” value in data set [1] is “cleavage of full-length TrpRS (SY variant) by PMN elastase generated a major fragment of about 46 kDa (SEQ ID NO: 25) and a minor fragment of about 43.5 kDa (SEQ ID NO: 24)”.

B2: T2-TrpRS (SY variant, without 6-His tag) produced by E. coli expression of the vector of SEQ ID NO: 70 (pAS-001) (other)
chain: SAKGIDYDKLIVRFGSSKIDKELINRIERATGQRPHHFLRRGIFFSHRDMNQVLDAYENKKPFYLYTGRGPSSEAMHVGHLIPFIFTKWLQDVFNVPLVIQMTDDEKYLWKDLTLDQAYSYAVENAKDIIACGFDINKTFIFSDLDYMGMSSGFYKNVVKIQKHVTFNQVKGIFGFTDSDCIGKISFPAIQAAPSFSNSFPQIFRDRTDIQCLIPCAIDQDPYFRMTRDVAPRIGYPKPALLHSTFFPALQGAQTKMSASDPNSSIFLTDTAKQIKTKVNKHAFSGGRDTIEEHRQFGGNCDVDVSFMYLTFFLEDDDKLEQIRKDYTSGAMLTGELKKALIEVLQPLIAEHQARRKEVTDEIVKEFMTPRKLSFDFQ
notes: the entries describe two such monomers associating non-covalently into a dimer; also called T2-TrpRS product
In the case of B2, the binding result in data set [2] is recorded as “binds”.
